B1: mRNA-splicing (parent)
chain: AGUUGCUGCUGGGAGCUCCAGCACAGUGAAAUGGACAGAAGGGCAGAGCAA

Variants of: B1
Assay: exon inclusion enrichment index; higher = more inclusion; WT1 exon 5 minigene, HEK293

Row | Variant | exon inclusion enrichment index
1 | AGUUGACGACGGGAGCUCCAGCACAGUGGUAUGGACAGAAGGGCAGAGCAA | 1.72
2 | AGUUGACGACGGGAGCUCCAGCACAGUGUAAUGGACAGAAGGGCAGAGCAA | 1.74
3 | AGUUGACGACGGGAGCUCCAGCACAGUGUCAUGGACAGAAGGGCAGAGCAA | 2.97
4 | AGUUGACGACGGGAGCUCCAGCACAGUGUGAUGGACAGAAGGGCAGAGCAA | 3.55
5 | AGUUGACGACGGGAGCUCCAGCACAGUGUUAUGGACAGAAGGGCAGAGCAA | 1.98
6 | AGUUGACGACGGGAGCUCCAGCACAGUGACAUGGACAGAAGGGCAGAGCAA | 3.29
7 | AGUUGACGACGGGAGCUCCAGCACAGUGACCUGGACAGAAGGGCAGAGCAA | 4.36
8 | AGUUGACGACGGGAGCUCCAGCACAGUGACGUGGACAGAAGGGCAGAGCAA | 3.94
9 | AGUUGACGACGGGAGCUCCAGCACAGUGACUUGGACAGAAGGGCAGAGCAA | 3.15
10 | AGUUGACGACGGGAGCUCCAGCACAGUGAGAUGGACAGAAGGGCAGAGCAA | 3.61
11 | AGUUGACGACGGGAGCUCCAGCACAGUGAGCUGGACAGAAGGGCAGAGCAA | 0.677
12 | AGUUGACGACGGGAGCUCCAGCACAGUGAGGUGGACAGAAGGGCAGAGCAA | 1.7
13 | AGUUGACGACGGGAGCUCCAGCACAGUGAGUUGGACAGAAGGGCAGAGCAA | 1.6
14 | AGUUGACGACGGGAGCUCCAGCACAGUGAUAUGGACAGAAGGGCAGAGCAA | 2.51
15 | AGUUGACGACGGGAGCUCCAGCACAGUGAUCUGGACAGAAGGGCAGAGCAA | 2.83
16 | AGUUGACGACGGGAGCUCCAGCACAGUGAUGUGGACAGAAGGGCAGAGCAA | 3.73
17 | AGUUGACGACGGGAGCUCCAGCACAGUGAUUUGGACAGAAGGGCAGAGCAA | 2.77
18 | AGUUGACGACGGGAGCUCCAGCACAGUGAACUGGACAGAAGGGCAGAGCAA | 3.96
19 | AGUUGACGACGGGAGCUCCAGCACAGUGAACAGGACAGAAGGGCAGAGCAA | 2.78
20 | AGUUGACGACGGGAGCUCCAGCACAGUGAACCGGACAGAAGGGCAGAGCAA | 4.42
21 | AGUUGACGACGGGAGCUCCAGCACAGUGAACGGGACAGAAGGGCAGAGCAA | 3.9
22 | AGUUGACGACGGGAGCUCCAGCACAGUGAAGUGGACAGAAGGGCAGAGCAA | 3.73
23 | AGUUGACGACGGGAGCUCCAGCACAGUGAAGAGGACAGAAGGGCAGAGCAA | 5.2
24 | AGUUGACGACGGGAGCUCCAGCACAGUGAAGCGGACAGAAGGGCAGAGCAA | 4.39
25 | AGUUGACGACGGGAGCUCCAGCACAGUGAAGGGGACAGAAGGGCAGAGCAA | 2.7
26 | AGUUGACGACGGGAGCUCCAGCACAGUGAAUUGGACAGAAGGGCAGAGCAA | 3.04

Row | Variant | exon inclusion enrichment index
27 | AGUUGACGACGGGAGCUCCAGCACAGUGAAUAGGACAGAAGGGCAGAGCAA | 0.902
28 | AGUUGACGACGGGAGCUCCAGCACAGUGAAUCGGACAGAAGGGCAGAGCAA | 3.74
29 | AGUUGACGACGGGAGCUCCAGCACAGUGAAUGGGACAGAAGGGCAGAGCAA | 2.15
30 | AGUUGACGACGGGAGCUCCAGCACAGUGAAAUGGCCAGAAGGGCAGAGCAA | 1.54
31 | AGUUGACGACGGGAGCUCCAGCACAGUGAAAUGGCAAGAAGGGCAGAGCAA | 2.28
32 | AGUUGACGACGGGAGCUCCAGCACAGUGAAAUGGCGAGAAGGGCAGAGCAA | 2.56
33 | AGUUGACGACGGGAGCUCCAGCACAGUGAAAUGGCUAGAAGGGCAGAGCAA | 0.742
34 | AGUUGACGACGGGAGCUCCAGCACAGUGAAAUGGGCAGAAGGGCAGAGCAA | 1.79
35 | AGUUGACGACGGGAGCUCCAGCACAGUGAAAUGGGAAGAAGGGCAGAGCAA | 2.29
36 | AGUUGACGACGGGAGCUCCAGCACAGUGAAAUGGGGAGAAGGGCAGAGCAA | 0.776
37 | AGUUGACGACGGGAGCUCCAGCACAGUGAAAUGGGUAGAAGGGCAGAGCAA | 0.107
38 | AGUUGACGACGGGAGCUCCAGCACAGUGAAAUGGUCAGAAGGGCAGAGCAA | 1.36
39 | AGUUGACGACGGGAGCUCCAGCACAGUGAAAUGGUAAGAAGGGCAGAGCAA | 0.00835
40 | AGUUGACGACGGGAGCUCCAGCACAGUGAAAUGGUGAGAAGGGCAGAGCAA | 0.375
41 | AGUUGACGACGGGAGCUCCAGCACAGUGAAAUGGUUAGAAGGGCAGAGCAA | 0.135
42 | AGUUGACGACGGGAGCUCCAGCACAGUGAAAUGGACCGAAGGGCAGAGCAA | 3.93
43 | AGUUGACGACGGGAGCUCCAGCACAGUGAAAUGGACCAAAGGGCAGAGCAA | 2.46
44 | AGUUGACGACGGGAGCUCCAGCACAGUGAAAUGGACCCAAGGGCAGAGCAA | 3.1
45 | AGUUGACGACGGGAGCUCCAGCACAGUGAAAUGGACCUAAGGGCAGAGCAA | 2.3
46 | AGUUGACGACGGGAGCUCCAGCACAGUGAAAUGGACGGAAGGGCAGAGCAA | 4.15
47 | AGUUGACGACGGGAGCUCCAGCACAGUGAAAUGGACGAAAGGGCAGAGCAA | 3
48 | AGUUGACGACGGGAGCUCCAGCACAGUGAAAUGGACGCAAGGGCAGAGCAA | 3.21
49 | AGUUGACGACGGGAGCUCCAGCACAGUGAAAUGGACGUAAGGGCAGAGCAA | 1.68
50 | AGUUGACGACGGGAGCUCCAGCACAGUGAAAUGGACUGAAGGGCAGAGCAA | 2.49
51 | AGUUGACGACGGGAGCUCCAGCACAGUGAAAUGGACUAAAGGGCAGAGCAA | 1.46
52 | AGUUGACGACGGGAGCUCCAGCACAGUGAAAUGGACUCAAGGGCAGAGCAA | 2.21

Row | Variant | exon inclusion enrichment index
53 | AGUUGACGACGGGAGCUCCAGCACAGUGAAAUGGACUUAAGGGCAGAGCAA | 1.27
54 | AGUUGACGACGGGAGCUCCAGCACAGUGAAAUGGACAGCAGGGCAGAGCAA | 1.37
55 | AGUUGACGACGGGAGCUCCAGCACAGUGAAAUGGACAGCCGGGCAGAGCAA | 3.31
56 | AGUUGACGACGGGAGCUCCAGCACAGUGAAAUGGACAGCGGGGCAGAGCAA | 3.55
57 | AGUUGACGACGGGAGCUCCAGCACAGUGAAAUGGACAGCUGGGCAGAGCAA | 3.22
58 | AGUUGACGACGGGAGCUCCAGCACAGUGAAAUGGACAGGAGGGCAGAGCAA | 2.38
59 | AGUUGACGACGGGAGCUCCAGCACAGUGAAAUGGACAGGCGGGCAGAGCAA | 3.81
60 | AGUUGACGACGGGAGCUCCAGCACAGUGAAAUGGACAGGGGGGCAGAGCAA | 0.569
61 | AGUUGACGACGGGAGCUCCAGCACAGUGAAAUGGACAGGUGGGCAGAGCAA | 0.497
62 | AGUUGACGACGGGAGCUCCAGCACAGUGAAAUGGACAGUAGGGCAGAGCAA | 0.343
63 | AGUUGACGACGGGAGCUCCAGCACAGUGAAAUGGACAGUCGGGCAGAGCAA | 3.44
64 | AGUUGACGACGGGAGCUCCAGCACAGUGAAAUGGACAGUGGGGCAGAGCAA | 1.39
65 | AGUUGACGACGGGAGCUCCAGCACAGUGAAAUGGACAGUUGGGCAGAGCAA | 1.76
66 | AGUUGACGACGGGAGCUCCAGCACAGUGAAAUGGACAGACGGGCAGAGCAA | 3.36
67 | AGUUGACGACGGGAGCUCCAGCACAGUGAAAUGGACAGACAGGCAGAGCAA | 1.84
68 | AGUUGACGACGGGAGCUCCAGCACAGUGAAAUGGACAGACCGGCAGAGCAA | 3.56
69 | AGUUGACGACGGGAGCUCCAGCACAGUGAAAUGGACAGACUGGCAGAGCAA | 1.87
70 | AGUUGACGACGGGAGCUCCAGCACAGUGAAAUGGACAGAGGGGCAGAGCAA | 3.27
71 | AGUUGACGACGGGAGCUCCAGCACAGUGAAAUGGACAGAGAGGCAGAGCAA | 1.83
72 | AGUUGACGACGGGAGCUCCAGCACAGUGAAAUGGACAGAGCGGCAGAGCAA | 3.6
73 | AGUUGACGACGGGAGCUCCAGCACAGUGAAAUGGACAGAGUGGCAGAGCAA | 2.58
74 | AGUUGACGACGGGAGCUCCAGCACAGUGAAAUGGACAGAUGGGCAGAGCAA | 2.61
75 | AGUUGACGACGGGAGCUCCAGCACAGUGAAAUGGACAGAUAGGCAGAGCAA | 0.347
76 | AGUUGACGACGGGAGCUCCAGCACAGUGAAAUGGACAGAUCGGCAGAGCAA | 3.18
77 | AGUUGACGACGGGAGCUCCAGCACAGUGAAAUGGACAGAUUGGCAGAGCAA | 1.9
78 | AGUUGACGACGGGAGCUCCAGCACAGUGAAAUGGACAGAAGGGCCGAGCAA | 3.19

Row | Variant | exon inclusion enrichment index
79 | AGUUGACGACGGGAGCUCCAGCACAGUGAAAUGGACAGAAGGGCCAAGCAA | 1.88
80 | AGUUGACGACGGGAGCUCCAGCACAGUGAAAUGGACAGAAGGGCCCAGCAA | 2.21
81 | AGUUGACGACGGGAGCUCCAGCACAGUGAAAUGGACAGAAGGGCCUAGCAA | 1.54
82 | AGUUGACGACGGGAGCUCCAGCACAGUGAAAUGGACAGAAGGGCGGAGCAA | 4.95
83 | AGUUGACGACGGGAGCUCCAGCACAGUGAAAUGGACAGAAGGGCGAAGCAA | 4.93
84 | AGUUGACGACGGGAGCUCCAGCACAGUGAAAUGGACAGAAGGGCGCAGCAA | 3.3
85 | AGUUGACGACGGGAGCUCCAGCACAGUGAAAUGGACAGAAGGGCGUAGCAA | 2.89
86 | AGUUGACGACGGGAGCUCCAGCACAGUGAAAUGGACAGAAGGGCUGAGCAA | 3.86
87 | AGUUGACGACGGGAGCUCCAGCACAGUGAAAUGGACAGAAGGGCUAAGCAA | 2.51
88 | AGUUGACGACGGGAGCUCCAGCACAGUGAAAUGGACAGAAGGGCUCAGCAA | 2.51
89 | AGUUGACGACGGGAGCUCCAGCACAGUGAAAUGGACAGAAGGGCUUAGCAA | 1.75
90 | AGUUGACGACGGGAGCUCCAGCACAGUGAAAUGGACAGAAGGGCAGCGCAA | 3.27
91 | AGUUGACGACGGGAGCUCCAGCACAGUGAAAUGGACAGAAGGGCAGCACAA | 2.16
92 | AGUUGACGACGGGAGCUCCAGCACAGUGAAAUGGACAGAAGGGCAGCCCAA | 2.81
93 | AGUUGACGACGGGAGCUCCAGCACAGUGAAAUGGACAGAAGGGCAGCUCAA | 3.09
94 | AGUUGACGACGGGAGCUCCAGCACAGUGAAAUGGACAGAAGGGCAGGGCAA | 0.844
95 | AGUUGACGACGGGAGCUCCAGCACAGUGAAAUGGACAGAAGGGCAGGACAA | 2.43
96 | AGUUGACGACGGGAGCUCCAGCACAGUGAAAUGGACAGAAGGGCAGGCCAA | 1.71
97 | AGUUGACGACGGGAGCUCCAGCACAGUGAAAUGGACAGAAGGGCAGGUCAA | 0.925
98 | AGUUGACGACGGGAGCUCCAGCACAGUGAAAUGGACAGAAGGGCAGUGCAA | 2.86
99 | AGUUGACGACGGGAGCUCCAGCACAGUGAAAUGGACAGAAGGGCAGUACAA | 2.69
100 | AGUUGACGACGGGAGCUCCAGCACAGUGAAAUGGACAGAAGGGCAGUCCAA | 2.31
101 | AGUUGACGACGGGAGCUCCAGCACAGUGAAAUGGACAGAAGGGCAGUUCAA | 2.6
102 | AGUUGACGACGGGAGAUCCAGCACAGUGAAAUGGACAGAAGGGCAGAGCAA | 3.82

From the RNAGym collection of RNA variant scans (doi:10.1101/gr.219683.116)
